Where only a bound is given, the exact number is not on record here.

Assay [1] addresses HLA-A*29:02. Nature of the assay: IEDB peptide-MHC binding, purified MHC/competitive/fluorescence; filed as Kd, often an IC50 or EC50 that approximates it; ≥ and ≤ were set here for values at or beyond the usual limits of such assays. The note with it: source organism: Cryptosporidium parvum Iowa II.
The next assay deals with HLA-A*11:01. Nature of the assay: IEDB peptide-MHC binding, purified MHC/direct/fluorescence; filed as Kd, often an IC50 or EC50 that approximates it; ≥ and ≤ were set here for values at or beyond the usual limits of such assays.
Assay [2] addresses HLA-A*31:01. Nature of the assay: IEDB peptide-MHC binding, purified MHC/competitive/fluorescence; filed as Kd, often an IC50 or EC50 that approximates it; ≥ and ≤ were set here for values at or beyond the usual limits of such assays.
A further assay concerns the target HLA-A*03:01. Description: IEDB peptide-MHC binding, purified MHC/direct/fluorescence; filed as Kd, often an IC50 or EC50 that approximates it; ≥ and ≤ were set here for values at or beyond the usual limits of such assays.
Assay [3] addresses HLA-A*69:01. The description is as above.
In a further assay the target is HLA-B*07:02. The description is as above.
The target in another assay is HLA-B*40:01. The description is as above.
Assay [4] deals with HLA-A*02:01. Described as above.
A further assay deals with HLA-A*24:03. Described as above. Conditions: source organism: Pasteurella multocida.
The target of assay [5] is HLA-A*31:01. Described as above.
The next assay deals with HLA-A*01:01. Described as above.
In the next assay the target is HLA-B*08:01. The assay is described as above.
Another assay deals with HLA-A*26:01. The description is as above.
The target of the next assay is HLA-B*27:05. Described as above.
The target of the next assay is HLA-B*58:01. The assay is described as above.
Assay [6] has as its target HLA-B*15:01. The assay is described as above.
The next assay has as its target HLA-B*35:01. Described as above.
The next assay has as its target HLA-B*39:01. The description is as above.
For a further assay, the target named is HLA-C*05:01. Described as above. Conditions: source organism: Vaccinia virus Copenhagen.
A further assay concerns the target HLA-B*46:01. The assay is described as above.
For a further assay, the target named is HLA-B*57:01. Described as above.
For another assay, the target named is HLA-B*15:09. Described as above.
The next assay concerns the target HLA-B*48:01. Described as above.
Assay [7] addresses HLA-A*69:01. Description: IEDB peptide-MHC binding, purified MHC/competitive/fluorescence; filed as Kd, often an IC50 or EC50 that approximates it; ≥ and ≤ were set here for values at or beyond the usual limits of such assays. The note with it: source organism: Vaccinia virus Copenhagen.
The target of assay [8] is HLA-A*02:01. The description is as above. The note with it: source organism: Vaccinia virus Copenhagen.
Assay [9] concerns the target HLA-B*15:01. The assay is described as above. The note with it: source organism: Vaccinia virus Copenhagen.
The next assay deals with HLA-B*44:02. Description: IEDB peptide-MHC binding, purified MHC/direct/fluorescence; filed as Kd, often an IC50 or EC50 that approximates it; ≥ and ≤ were set here for values at or beyond the usual limits of such assays.
The target of the next assay is HLA-B*15:17. The assay is described as above. Conditions: source organism: Giardia lamblia ATCC 50803.
The target of another assay is HLA-B*18:01. The assay is described as above. The note with it: source organism: West Nile virus.
In assay [10] the target is HLA-A*29:02. The assay is described as above. The note with it: source organism: West Nile virus.
[11] abbreviates: source organism: West Nile virus.
[12] abbreviates: source organism: Pasteurella multocida.
[13] abbreviates: source organism: Mycobacterium tuberculosis.
Where [14] appears, read: source organism: Giardia lamblia ATCC 50803.
Setting [15] is: source organism: Camelpox virus M-96.
The mark [16] stands for this setting: source organism: Campylobacter jejuni.
The mark [17] stands for this setting: source organism: Vibrio cholerae.
Where [18] appears, read: source organism: Vibrio parahaemolyticus.

As usually defined, the Kd is the free concentration of one partner at which half of the binding sites on the other are occupied at equilibrium, for simple one-to-one binding. A higher Kd goes with weaker binding. Regarding MMGIILSKY, the Kd in the assay with HLA-A*29:02 [1] was determined as 0.052 µM.

For the sequence MVGVGSLVK, the Kd with HLA-A*11:01 (setting [11]) was 0.027 µM; with HLA-A*31:01 [2] (setting [11]), no less than 20 µM.

TVHDRTPYR: the Kd with HLA-A*03:01 (source organism: Influenza A virus (A/SW/MN/3128/00(H1N2))) and with HLA-A*31:01 [2] (source organism: Influenza A virus (A/Waikato/7/2000(H3N2))) was no less than 20 µM each time.

As for VMLDWGIEL, the Kd with HLA-A*69:01 [3] (setting [12]) is 0.599 µM; in the assay with HLA-B*07:02 (setting [12]), 11.3 µM; in the assay with HLA-B*40:01 (setting [12]), no less than 20 µM; with HLA-A*02:01 [4] (setting [12]) it was 0.00619 µM; with HLA-A*24:03, no less than 20 µM; with HLA-A*31:01 [5] (setting [12]), no less than 20 µM. In addition, the Kd with HLA-A*01:01 (setting [12]) is no less than 20 µM; in the assay with HLA-B*08:01 (setting [12]) it was no less than 20 µM; with HLA-A*26:01 (setting [12]), no less than 20 µM; with HLA-A*11:01 (setting [12]) it was 3.03 µM; with HLA-B*27:05 (setting [12]), no less than 20 µM; in the assay with HLA-B*58:01 (setting [12]), no less than 20 µM. For the same sequence, the Kd with HLA-A*03:01 (setting [12]) was no less than 20 µM; with HLA-B*15:01 [6] (setting [12]) it was 0.267 µM; with HLA-B*35:01 (setting [12]), 0.297 µM.

Turning to GTAPPPLTR, the dissociation constant (Kd) turned out to be 0.0204 µM in the assay with HLA-A*11:01 (setting [13]), 0.32 µM with HLA-A*03:01 (setting [13]) and 0.00377 µM with HLA-A*31:01 [2] (source organism: Mycobacterium tuberculosis variant bovis BCG str. Pasteur 1173P2).

YTDLTYQSF: the Kd with HLA-B*40:01 (source organism: Cowpox virus) is no less than 20 µM; with HLA-A*31:01 [5] (source organism: Cowpox virus), no less than 20 µM; with HLA-A*01:01 (source organism: Cowpox virus), 0.019 µM; in the assay with HLA-B*39:01 (source organism: Variola virus), no less than 20 µM; with HLA-C*05:01, no more than 0.001 µM; in the assay with HLA-B*08:01 (source organism: Variola virus), no less than 20 µM. For the same sequence, the Kd is no less than 20 µM with HLA-B*46:01 (source organism: Cowpox virus); 0.233 µM with HLA-A*26:01 (source organism: Variola virus); no less than 20 µM with HLA-A*11:01 (source organism: Cowpox virus); no less than 20 µM with HLA-B*27:05 (source organism: Cowpox virus); 0.083 µM with HLA-B*58:01 (source organism: Variola virus); no less than 20 µM in the assay with HLA-A*03:01 (source organism: Cowpox virus). Besides, the Kd was 3.76 µM in the assay with HLA-B*57:01 (source organism: Cowpox virus); no less than 20 µM in the assay with HLA-B*15:09 (source organism: Variola virus); no less than 20 µM with HLA-B*48:01 (source organism: Cowpox virus); no less than 20 µM in the assay with HLA-A*69:01 [7]; no less than 20 µM in the assay with HLA-A*02:01 [8]; 2.64 µM with HLA-B*15:01 [9].

As to HSSVAGGLW, the Kd with HLA-A*69:01 [3] (setting [14]), with HLA-B*07:02 (setting [14]), in the assay with HLA-B*40:01 (setting [14]), in the assay with HLA-B*44:02 (setting [14]), in the assay with HLA-A*02:01 [4] (setting [14]) and in the assay with HLA-A*31:01 [5] (setting [14]) was no less than 20 µM throughout. The Kd was 0.59 µM with HLA-A*01:01 (setting [14]); no less than 20 µM with HLA-B*08:01 (setting [14]); no less than 20 µM with HLA-A*26:01 (setting [14]); no less than 20 µM with HLA-A*11:01 (setting [14]); no less than 20 µM in the assay with HLA-B*27:05 (setting [14]); 0.00374 µM in the assay with HLA-B*58:01 (setting [14]). For the same sequence, the Kd is 0.0011 µM in the assay with HLA-B*15:17; no less than 20 µM with HLA-A*03:01 (setting [14]); no less than 20 µM in the assay with HLA-B*15:01 [6] (setting [14]); 0.278 µM with HLA-B*35:01 (setting [14]); 0.0535 µM with HLA-B*57:01 (setting [14]).

For the sequence SQEDNHFSL, the equilibrium dissociation constant (Kd) with HLA-A*69:01 [3] (setting [15]) was no less than 20 µM; with HLA-B*07:02 (setting [15]) it was no less than 20 µM; with HLA-B*40:01 (source organism: Variola virus), 0.141 µM; in the assay with HLA-B*44:02 (setting [15]) it was no less than 20 µM; with HLA-A*02:01 [4] (setting [15]) it was no less than 20 µM; in the assay with HLA-A*31:01 [5] (setting [15]), no less than 20 µM. Moreover, the Kd with HLA-A*01:01 (setting [15]), with HLA-B*08:01 (setting [15]), with HLA-A*26:01 (setting [15]), in the assay with HLA-A*11:01 (setting [15]), with HLA-B*27:05 (setting [15]) and in the assay with HLA-B*58:01 (setting [15]) was no less than 20 µM in each case. Also, the results for the Kd in the assay with HLA-A*03:01 (setting [15]), with HLA-B*15:01 [6] (source organism: Variola virus) and in the assay with HLA-B*35:01 (source organism: Variola virus) were no less than 20 µM, 2.79 µM and 1.56 µM, respectively.

As for TLYYLECKR, the Kd is no less than 20 µM with HLA-A*03:01 (setting [16]) and 0.0545 µM with HLA-A*31:01 [2] (setting [16]).

In the case of AHYEEDVNL, the Kd with HLA-A*69:01 [3] (setting [11]), in the assay with HLA-B*07:02 (setting [11]), with HLA-B*40:01 (setting [11]), with HLA-B*18:01, with HLA-A*29:02 [10] and with HLA-B*44:02 (setting [11]) was no less than 20 µM in each case. Also, the Kd is no less than 20 µM in the assay with HLA-A*02:01 [4] (setting [11]); no less than 20 µM in the assay with HLA-A*31:01 [5] (setting [11]); no less than 20 µM in the assay with HLA-A*01:01 (setting [11]); 1.71 µM with HLA-B*39:01 (setting [11]); no less than 20 µM with HLA-B*46:01 (setting [11]); no less than 20 µM in the assay with HLA-A*11:01 (setting [11]). The Kd with HLA-B*27:05 (setting [11]) is no less than 20 µM; with HLA-B*58:01 (setting [11]) it was no less than 20 µM; in the assay with HLA-A*03:01 (setting [11]), no less than 20 µM; with HLA-B*15:01 [6] (setting [11]), no less than 20 µM; in the assay with HLA-B*57:01 (setting [11]) it was no less than 20 µM; with HLA-B*15:09 (setting [11]) it was 1.8 µM. The sequence further had a Kd with HLA-B*48:01 (setting [11]) of no less than 20 µM.

As for EGIEGRIAY, the Kd with HLA-A*69:01 [3] (setting [17]), with HLA-B*07:02 (setting [17]), in the assay with HLA-B*40:01 (setting [17]), with HLA-B*44:02 (setting [17]), in the assay with HLA-A*02:01 [4] (setting [17]) and in the assay with HLA-A*31:01 [5] (setting [17]) was no less than 20 µM throughout. Moreover, the Kd with HLA-A*01:01 (setting [17]) was no less than 20 µM; in the assay with HLA-B*08:01 (setting [17]) it was no less than 20 µM; with HLA-A*26:01 (setting [17]), 0.00861 µM; with HLA-A*11:01 (setting [17]), no less than 20 µM; in the assay with HLA-B*27:05 (setting [17]), no less than 20 µM; with HLA-B*58:01 (setting [17]), no less than 20 µM. In addition, the values for the Kd with HLA-A*03:01 (setting [17]), in the assay with HLA-B*15:01 [6] (setting [17]) and in the assay with HLA-B*35:01 (setting [17]) were no less than 20 µM, 0.306 µM and 0.0159 µM, respectively.

As for EVDEGSDMM, the Kd in the assay with HLA-A*69:01 [3] (setting [18]) is 0.141 µM; with HLA-B*07:02 (setting [18]) it was no less than 20 µM; in the assay with HLA-B*40:01 (setting [18]) it was no less than 20 µM; with HLA-B*44:02 (setting [18]), no less than 20 µM; in the assay with HLA-A*02:01 [4] (setting [18]) it was no less than 20 µM; with HLA-A*31:01 [5] (setting [18]), no less than 20 µM. For the same sequence, the Kd with HLA-A*01:01 (setting [18]) was 4.3 µM; in the assay with HLA-B*08:01 (setting [18]) it was no less than 20 µM; with HLA-A*26:01 (setting [18]), 4.43 µM; with HLA-A*11:01 (setting [18]), no less than 20 µM; with HLA-B*27:05 (setting [18]), no less than 20 µM; with HLA-B*58:01 (setting [18]), no less than 20 µM. The Kd with HLA-A*03:01 (setting [18]) is no less than 20 µM; with HLA-B*15:01 [6] (setting [18]), no less than 20 µM; in the assay with HLA-B*35:01 (setting [18]), 0.254 µM.

(Values after the Immune Epitope Database (IEDB).)
